From patent US20240075161A1 (AUGUSTA UNIVERSITY RESEARCH INSTITUTE, published 2024)
Where no end group is shown, it is not given here. The star is where a group is joined. Biotin = O=C1N[C@H]2[C@H](CS[C@H]2CCCCC(=O)*)N1

Target: T1, CD206 on CD206-positive M2 macrophages (mouse) (mouse, UniProt Q61830 20-1456)
T1 construct: whole, on cells; No purified CD206 was used; also called CD206 receptor; CD206+ RAW264.7 cells
T1 sequence (looked up): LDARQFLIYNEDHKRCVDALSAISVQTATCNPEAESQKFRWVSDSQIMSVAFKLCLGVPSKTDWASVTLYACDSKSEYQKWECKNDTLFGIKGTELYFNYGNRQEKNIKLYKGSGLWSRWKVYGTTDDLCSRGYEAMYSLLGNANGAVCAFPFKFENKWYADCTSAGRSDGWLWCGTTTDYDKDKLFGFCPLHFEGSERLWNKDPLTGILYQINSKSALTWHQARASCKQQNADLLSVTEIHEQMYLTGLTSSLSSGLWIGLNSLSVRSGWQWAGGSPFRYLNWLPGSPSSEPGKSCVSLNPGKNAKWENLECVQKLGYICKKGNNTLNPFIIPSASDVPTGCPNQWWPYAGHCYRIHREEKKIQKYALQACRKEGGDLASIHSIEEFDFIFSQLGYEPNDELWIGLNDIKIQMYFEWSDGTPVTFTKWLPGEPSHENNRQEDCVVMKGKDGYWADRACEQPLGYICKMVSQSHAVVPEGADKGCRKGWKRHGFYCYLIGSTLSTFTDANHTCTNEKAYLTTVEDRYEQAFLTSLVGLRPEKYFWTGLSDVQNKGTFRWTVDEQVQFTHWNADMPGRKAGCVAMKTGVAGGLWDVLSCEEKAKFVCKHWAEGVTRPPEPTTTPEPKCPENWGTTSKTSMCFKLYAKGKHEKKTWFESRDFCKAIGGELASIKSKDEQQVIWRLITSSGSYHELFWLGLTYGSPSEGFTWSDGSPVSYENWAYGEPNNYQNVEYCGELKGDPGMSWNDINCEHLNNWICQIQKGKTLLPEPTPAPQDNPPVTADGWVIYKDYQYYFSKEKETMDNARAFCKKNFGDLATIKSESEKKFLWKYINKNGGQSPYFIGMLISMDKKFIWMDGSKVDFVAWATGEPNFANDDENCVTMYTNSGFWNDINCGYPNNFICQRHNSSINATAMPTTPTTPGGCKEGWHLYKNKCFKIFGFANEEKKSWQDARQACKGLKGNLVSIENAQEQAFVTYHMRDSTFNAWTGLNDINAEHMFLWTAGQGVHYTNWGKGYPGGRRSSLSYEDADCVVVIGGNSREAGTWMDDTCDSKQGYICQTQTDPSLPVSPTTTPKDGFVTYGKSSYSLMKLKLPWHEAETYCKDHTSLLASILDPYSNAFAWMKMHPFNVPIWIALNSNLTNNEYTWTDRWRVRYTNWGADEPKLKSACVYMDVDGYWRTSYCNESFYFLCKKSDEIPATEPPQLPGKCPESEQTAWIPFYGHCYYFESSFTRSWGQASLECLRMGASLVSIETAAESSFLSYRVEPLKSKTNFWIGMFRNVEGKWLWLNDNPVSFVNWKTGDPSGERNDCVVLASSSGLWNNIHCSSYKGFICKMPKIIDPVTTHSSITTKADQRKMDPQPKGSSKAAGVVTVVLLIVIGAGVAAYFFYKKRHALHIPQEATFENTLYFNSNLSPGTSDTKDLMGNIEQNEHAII
Test: immunofluorescence of tumor, spleen and lung sections of 4T1 tumor-bearing mice after i.v. injection

B1: Biotinylated precision peptide (Biotin-CSPGAKVRC), rhodamine-labeled (peptide)
peptide: Biotin-CSPGAKVRC
modifications: cysteine pairing not given here; also: complex with rhodamine-tagged streptavidin
notes: Synthetic peptide (GeneScript); injected i.v. as a complex with rhodamine-streptavidin; also called Rhodamine red-labeled targeting peptide; rhodamine-labeled precision peptide
Q: Does B1 bind?
A: binds
